Test results: patent publication US6120992, “Use of immobilized mismatch binding protein for detection of mutations and polymorphisms, and allele identification in a diseased human” (ValiGene Corporation)
Changes are numbered by the printed parent chain.

What was measured:
MutS [1] = biological target: T1, MutS (Escherichia coli, UniProt P23909 P23909:1-853); experiment: immobilized MutS; strong signal; conditions: tags: immobilized on nitrocellulose, PVDF, nylon or magnetic beads; label: 5' biotin on first strand; G//G mismatch
T1 sequence: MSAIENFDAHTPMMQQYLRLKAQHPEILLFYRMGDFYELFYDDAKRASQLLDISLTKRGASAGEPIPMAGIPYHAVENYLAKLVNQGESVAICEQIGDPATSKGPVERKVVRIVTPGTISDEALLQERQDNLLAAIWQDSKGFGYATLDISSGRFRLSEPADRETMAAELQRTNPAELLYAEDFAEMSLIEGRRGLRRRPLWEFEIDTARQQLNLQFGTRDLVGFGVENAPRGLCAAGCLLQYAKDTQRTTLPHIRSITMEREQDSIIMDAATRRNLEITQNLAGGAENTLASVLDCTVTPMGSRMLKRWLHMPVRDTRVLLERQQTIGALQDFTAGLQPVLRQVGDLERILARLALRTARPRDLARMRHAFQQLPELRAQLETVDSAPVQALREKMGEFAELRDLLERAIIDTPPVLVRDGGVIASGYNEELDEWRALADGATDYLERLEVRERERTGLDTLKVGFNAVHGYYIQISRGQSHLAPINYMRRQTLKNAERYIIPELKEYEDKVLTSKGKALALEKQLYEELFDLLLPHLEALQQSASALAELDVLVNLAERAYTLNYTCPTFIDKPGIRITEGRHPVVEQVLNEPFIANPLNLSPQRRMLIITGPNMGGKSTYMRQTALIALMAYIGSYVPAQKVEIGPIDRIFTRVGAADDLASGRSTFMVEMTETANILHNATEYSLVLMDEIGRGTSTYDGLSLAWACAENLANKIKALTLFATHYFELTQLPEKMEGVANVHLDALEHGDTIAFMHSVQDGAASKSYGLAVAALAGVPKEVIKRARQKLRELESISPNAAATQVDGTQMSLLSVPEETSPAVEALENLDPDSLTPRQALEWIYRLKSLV
Method: (§1) Immobilization of MutS on Solid Supports and Biotin Detection Assay (a) Nitrocellulose A nitrocellulose sheet (0.45 μm, Schleicher and Schull, BA85) was pre-wet by floating in reaction buffer (20 mM Tris HCl, pH 7.6; 5 mM MgCl_2, 0.1 mM DTT, 0.01 mM EDTA). MutS (500 ng/well) in reaction buffer was bound to the nitrocellulose in a 48 well slot blotting apparatus (Hoefer Scientific Instruments) over 3 sheets of blotting paper (Schleicher and Schull GB002). Reaction buffer alone was added to "no MutS" wells. After 20 min. at room temperature, nitrocellulose was blocked with 200 μl/well of 3% horse radish peroxidase (HRP)-free bovine serum albumin (BSA). After 1 hour, excess blocking solution was pulled through with vacuum and DNA (1 ng and 10 ng) was added in 20 μl reaction buffer containing 3% BSA. After 30 min. at room temperature, wells were washed 5 times with 100 μl reaction buffer. The wash fluids were decanted rather than pulled through with vacuum.
(§2) The presence of biotin-labeled DNA bound on the nitrocellulose sheet was detected by visualizing the binding of streptavidin to biotin. 100 μl streptavidin-conjugated HRP (0.05 μg/ml in reaction buffer+BSA) was added to each well. After 20 min. at room temperature, any remaining solution was decanted and the wells washed 5 times with 100 μl reaction buffer as above.

MutS [2] = biological target: T1, MutS; experiment: immobilized MutS; conditions: tags: immobilized on nitrocellulose, PVDF, nylon or magnetic beads, label: 5' biotin on first strand
Method: as §1, §2

MutS [3] = biological target: T1, MutS; experiment: filter; soluble MutS, 1 or 10 ng DNA; 1.8-fold at 0.1 ng; conditions: tags: immobilized on nitrocellulose, PVDF, nylon or magnetic beads; label: 5' biotin on first strand; G//T mismatch
Method: The binding of ^32P-labeled heteroduplexes to MutS in solution was tested in a standard filter binding assay essentially as described by Jiricny, J. et al., Nucl. Acids Res. 16:7843–7853 (1988). The oligonucleotides were labeled as above and annealed with a 10-fold excess of unlabeled "complementary" oligonucleotides to yield a homoduplex and a heteroduplex containing a single G//T mismatch. For this assay, 500 ng of MutS in reaction buffer (20 µl) was incubated for 30 minutes at room temperature with the two types of duplexes. The mixture was spotted onto pre-wet nitrocellulose filters, which were then washed 5 times with 2 ml reaction buffer by vacuum filtration and dried at 80° C. for 15 minutes. Each filter was placed in 3 ml scintillation fluid and the radioactivity determined by scintillation counting. Background cpm (no MutS) were subtracted from the cpm bound by MutS. Means of duplicate or triplicate determinations are shown below.

MutS [4] = biological target: T1, MutS; experiment: immobilized MutS; conditions: tags: immobilized on nitrocellulose, PVDF, nylon or magnetic beads, label: biotin
Method: as §1
DNA was prepared as described in the Examples above. 500 ng *E. coli* MutS was bound to nitrocellulose as described above and the experiment carried out as in the previous Examples. Self-annealed single stranded triplet repeat sequences of CGG and CTG formed double-stranded mismatch-containing DNA duplexes which were recognized by immobilized MutS.

MutS [5] = biological target: T1, MutS; experiment: immobilized MutS, 1-10 ng; detected equally to G//T; conditions: tags: immobilized on nitrocellulose, PVDF, nylon or magnetic beads; label: 5' biotin on first strand; T//G mismatch
Method: as §1, §2

MutS [6] = biological target: T1, MutS; experiment: immobilized MutS; C//T less well detected than T//C; conditions: tags: immobilized on nitrocellulose, PVDF, nylon or magnetic beads; label: 5' biotin on first strand; C//T mismatch
Method: as §1, §2

[7] = self-annealed duplex with mismatches

B1: G//G mismatch 30mer (dsDNA)
DNA 1: GCACCTGACTCCTGGGGAGAAGTCTGCCGT
DNA 2: ACGGCAGACTTCTCCGCAGGAGTCAGGTGC
Does B1 bind (MutS [1])?
Result: binds

B2: A//G mismatch 30mer (dsDNA)
DNA 1: B1 DNA 1 with G15A
DNA 2: B1 DNA 2
Does B2 bind (MutS [2]; A//G mismatch)?
Result: binds

B3: G//A mismatch 30mer (dsDNA)
DNA 1: B1 DNA 1
DNA 2: B1 DNA 2 with G16A
Does B3 bind (MutS [2]; G//A mismatch)?
Result: binds

B4: A//C mismatch 30mer (dsDNA)
DNA 1: B1 DNA 1 with G15A
DNA 2: B1 DNA 2 with G16C
Does B4 bind (MutS [2]; A//C mismatch)?
Result: binds

B5: A//A mismatch 30mer (dsDNA)
DNA 1: B1 DNA 1 with G15A
DNA 2: B1 DNA 2 with G16A
Does B5 bind (MutS [2]; A//A mismatch)?
Result: binds

B6: T//T mismatch 30mer (dsDNA)
DNA 1: B1 DNA 1 with G15T
DNA 2: B1 DNA 2 with G16T
Does B6 bind (MutS [2]; T//T mismatch)?
Result: binds

B7: G//T mismatch 30mer (dsDNA)
DNA 1: B1 DNA 1
DNA 2: B1 DNA 2 with G16T
With B7 as the binder, how does the binding signal (MutS [3]) read?
The binding signal was 5.2 fold over G:C homoduplex.

Does CGGCGGCGGCGGCGGCGGCGGCGGCGGCGG (structured_DNA) [(CGG)10] bind (MutS [4]; [7])?
Result: binds

Does CTGCTGCTGCTGCTGCTGCTGCTGCTGCTG (structured_DNA) [(CTG)10] bind (MutS [4]; [7])?
Result: binds

Does CCGCCGCCGCCGCCGCCGCCGCCGCCGCCG (ssDNA) [(CCG)10] bind (MutS [4])?
Result: no binding

Does CAGCAGCAGCAGCAGCAGCAGCAGCAGCAG (ssDNA) [(CAG)10] bind (MutS [4])?
Result: no binding

B8: T//G mismatch 30mer (dsDNA)
DNA 1: B1 DNA 1 with G15T
DNA 2: B1 DNA 2
Does B8 bind (MutS [5])?
Result: binds

B9: C//T mismatch 30mer (dsDNA)
DNA 1: B1 DNA 1 with G15C
DNA 2: B1 DNA 2 with G16T
Does B9 bind (MutS [6])?
Result: binds
